The values below come from article PMC8712518.

Assay [1] addresses DnaK75-RNC, ribosome-nascent-chain complex carrying a 75 amino acid-long nascent chain of DnaK (not stated | E. coli) (UniProt P0A6Y8).
The target of assay [2] is RNaseH75-RNC, ribosome-nascent-chain complex carrying a 75 amino acid-long nascent chain of RNaseH (not stated | E. coli) (UniProt P0A7Y4).
The target of assay [3] is TolB75-RNC, formylated ribosome-nascent-chain complex carrying the 75 N-terminal amino acids of TolB (not stated | E. coli) (UniProt P0A855).
In assay [4] the target is proOmpA75-RNC, ribosome-nascent-chain complex carrying a 75 amino acid-long nascent chain of proOmpA (not stated | E. coli) (UniProt P0A910).
UniProt P0A910, sequence (P0A910 whole entry, looked up, one chain of several): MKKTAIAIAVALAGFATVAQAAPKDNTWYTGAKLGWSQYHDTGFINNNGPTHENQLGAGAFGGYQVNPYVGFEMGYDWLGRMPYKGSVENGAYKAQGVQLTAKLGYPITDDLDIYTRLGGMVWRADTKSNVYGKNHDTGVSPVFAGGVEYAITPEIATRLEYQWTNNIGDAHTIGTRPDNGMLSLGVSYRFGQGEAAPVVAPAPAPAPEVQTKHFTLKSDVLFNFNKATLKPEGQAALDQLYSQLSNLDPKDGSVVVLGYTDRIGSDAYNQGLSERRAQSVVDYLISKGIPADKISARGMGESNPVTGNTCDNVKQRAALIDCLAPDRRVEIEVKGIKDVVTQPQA
Assay [5] addresses vacant 70S ribosomes from E. coli MRE600 (E. coli). The assay is described as follows: fluorescence polarisation; equilibrium titration of PDF(Bpy) (200 nM) with 70S ribosomes; fluorescence anisotropy; 10 °C; corrected for light scattering; hyperbolic fit. A general note: In fluorescence polarisation assays a small probe gives low polarisation when free and higher when bound to something large.

Assay [6] has as its target TolB75-RNC after deformylation of the nascent chain by PDF (not stated | E. coli) (UniProt P0A855). The assay can be described thus: stopped-flow fluorescence kinetics (chase); preformed 70S-PDF(Bpy) or RNC-PDF(Bpy) complex mixed with excess unlabeled PDF (15 µM); Bodipy fluorescence; buffer A; 10 °C; single-exponential fit.
Assay [7] has as its target vacant 70S ribosomes from E. coli MRE600 (E. coli). The assay is described as above.
Assay [8] concerns the target TolB75-RNC, formylated ribosome-nascent-chain complex carrying the 75 N-terminal amino acids of TolB (not stated | E. coli) (UniProt P0A855). The assay can be described thus: stopped-flow fluorescence kinetics (association); PDF(Bpy) (300 nM) rapidly mixed with 70S ribosomes or TolB75-RNC (420 nM); buffer A; 10 °C; single-exponential fit, apparent rate at one concentration.

In assay [9] the target is vacant 70S ribosomes from E. coli MRE600 (E. coli). Described as above.
The target is the same in assay [10]. The assay can be described thus: stopped-flow fluorescence kinetics (titration, global fit); PDF(Bpy) (100 nM) mixed with 70S ribosomes (0.5-2 µM); buffer A; 10 °C; global fit to a one-step binding model in KinTek Explorer; Kd,calc = k-1/k1.
Assay [11] shares this target. The assay is described as follows: stopped-flow fluorescence kinetics, extrapolated; rate constants measured at 10 °C, extrapolated to 37 °C by Eq. 3 with single-turnover deformylation of TolB75-RNC as the reference; Kd,calc from the extrapolated rate constants.

UniProt P0A7Y4, sequence (P0A7Y4 whole entry, looked up, one chain of several): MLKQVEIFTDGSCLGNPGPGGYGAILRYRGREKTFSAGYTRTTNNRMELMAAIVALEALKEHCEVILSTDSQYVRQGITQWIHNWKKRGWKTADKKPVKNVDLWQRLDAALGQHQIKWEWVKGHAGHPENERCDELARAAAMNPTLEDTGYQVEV
UniProt P0A6Y8, sequence (P0A6Y8 whole entry, looked up, one chain of several): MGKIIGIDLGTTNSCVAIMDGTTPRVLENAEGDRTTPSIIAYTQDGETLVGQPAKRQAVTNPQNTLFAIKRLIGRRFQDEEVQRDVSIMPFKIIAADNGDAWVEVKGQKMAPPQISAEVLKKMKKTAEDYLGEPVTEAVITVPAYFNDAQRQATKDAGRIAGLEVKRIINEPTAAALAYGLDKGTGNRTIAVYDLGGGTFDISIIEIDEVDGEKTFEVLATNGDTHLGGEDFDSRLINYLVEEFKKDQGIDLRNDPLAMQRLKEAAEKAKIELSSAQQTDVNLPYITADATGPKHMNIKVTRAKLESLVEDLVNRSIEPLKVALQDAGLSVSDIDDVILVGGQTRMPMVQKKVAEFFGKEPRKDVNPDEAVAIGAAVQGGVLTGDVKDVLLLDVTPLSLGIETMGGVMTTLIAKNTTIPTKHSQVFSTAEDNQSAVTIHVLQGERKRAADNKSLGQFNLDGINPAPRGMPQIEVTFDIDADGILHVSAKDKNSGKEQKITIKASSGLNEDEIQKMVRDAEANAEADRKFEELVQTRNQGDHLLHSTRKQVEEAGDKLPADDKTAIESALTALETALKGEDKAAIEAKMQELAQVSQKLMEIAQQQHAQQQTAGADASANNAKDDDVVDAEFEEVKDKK

B1: peptide deformylase (PDF), unlabeled, with C-terminal His6-tag (enzyme)
chain: MSVLQVLHIPDERLRKVAKPVEEVNAEIQRIVDDMFETMYAEEGIGLAATQVDIHQRIIVIDVSENRDERLVLINPELLEKSGETGIEEGCLSIPEQRALVPRAEKVKIRALDRDGKPFELEADGLLAICIQHEMDHLVGKLFMDYLSPLKQQRIRQKVEKLDRLKARA
With B1, the KM of nascent-chain deformylation by PDF, multiple turnover, 37 °C (TLC of f[35S]Met and [35S]Met) came to 0.5 µM in [1], 0.6 µM in assay [2], 0.25 µM in assay [3] and 0.3 µM in assay [4].

B2: PDF(Bpy), peptide deformylase labelled at the C-terminus with Bodipy-FL (enzyme)
chain: B1 chain
modifications: Bodipy-FL on the C-terminal peptide CSDSK-Bpy
Take B2: the Kd is 2100 nM in assay [5], 2100 nM in [10] and 2000 nM in assay [11]. Moreover, the koff was 27 s⁻¹ in assay [6], 33 s⁻¹ in assay [7], 29 s⁻¹ in assay [10] and 70 s⁻¹ in assay [11]. The apparent rate of binding at 420 nM RNC in assay [8] came out at 40 s⁻¹. In addition, in [9], the apparent rate of binding at 420 nM 70S ribosomes turned out to be 44 s⁻¹. In addition, the kon in assay [10] is 1.4e+07 M⁻¹ s⁻¹; in assay [11] it was 4e+07 M⁻¹ s⁻¹.

The term Kd denotes the concentration at which binding is half-saturated. The koff is a measure of how fast the partners let go of each other. One may read the kon as a measure of how fast the partners come together.
